From patent US20230192789A1, “STRUCTURALLY-STABILIZED AND HDMX-SELECTIVE P53 PEPTIDES AND USES THEREOF” (Dana-Farber Cancer Institute, Inc., priority 2020, published 2023)
Bridges are numbered along the chain shown (N, C = ends). Where no end group is shown, it is not given here. [ ]: non-standard residue; d: D form. The star is where a group is joined. Biotin = O=C1N[C@H]2[C@H](CS[C@H]2CCCCC(=O)*)N1; R8 = C=CCCCCCC[C@@](C)(N)C(=O)O; Cba = N[C@@H](CC1CCC1)C(=O)O; S5 = C=CCCC[C@](C)(N)C(=O)O

Biological target: T1, recombinant HDMX (amino acids 1-490 of SEQ ID NO:104) (Homo sapiens, UniProt O15151)
T1 construct: thioredoxin (N, cleaved yes); S tag (N, cleaved yes); hexahistidine (N, cleaved yes); made in house; host or cells: E. coli (inferred: pET32-LIC vector, handled as described for HDM2 in BL21(DE3))
T1 sequence (O15151 1-490): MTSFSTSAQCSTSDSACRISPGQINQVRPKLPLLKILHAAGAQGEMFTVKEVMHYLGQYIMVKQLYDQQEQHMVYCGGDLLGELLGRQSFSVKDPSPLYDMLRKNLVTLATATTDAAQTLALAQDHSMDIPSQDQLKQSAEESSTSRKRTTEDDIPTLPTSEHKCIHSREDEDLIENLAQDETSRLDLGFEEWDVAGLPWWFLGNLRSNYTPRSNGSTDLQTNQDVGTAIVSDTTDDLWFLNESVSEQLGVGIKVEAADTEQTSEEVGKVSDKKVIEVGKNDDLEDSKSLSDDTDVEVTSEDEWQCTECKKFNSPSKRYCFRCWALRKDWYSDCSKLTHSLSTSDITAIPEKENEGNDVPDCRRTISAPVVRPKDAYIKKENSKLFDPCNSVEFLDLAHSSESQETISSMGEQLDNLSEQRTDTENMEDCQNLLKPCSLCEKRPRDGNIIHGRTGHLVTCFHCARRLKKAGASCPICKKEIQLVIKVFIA
Test: Competitive streptavidin pull-down of biotinylated peptides with 1:1 recombinant HDM2/HDMX mixture, HDMX western
Type: binding
Conditions: biotinylated stapled peptide, 1:1 mixture of recombinant HDM2 and HDMX

Substance	HDMX versus HDM2 binding selectivity
ATSP-7041 B26N (Biotin-LTF[R8]EYWAQN[S5]SAA-NH2; staple 4-11; SMILES CC(C)C[C@H](NC(=O)CCCC[C@@H]1SC[C@@H]2NC(=O)N[C@@H]21)C(=O)N[C@H](C(=O)N[C@@H](Cc1ccccc1)C(=O)N[C@]1(C)CCCCCCC=CCCC[C@@](C)(C(=O)N[C@@H](CO)C(=O)N[C@@H](C)C(=O)N[C@@H](C)C(N)=O)NC(=O)[C@H](CC(N)=O)NC(=O)[C@H](CCC(N)=O)NC(=O)[C@H](C)NC(=O)[C@H](Cc2c[nH]c3ccccc23)NC(=O)[C@H](Cc2ccc(O)cc2)NC(=O)[C@H](CCC(=O)O)NC1=O)[C@@H](C)O)	HDMX selectivity over HDM2
ATSP-7041 B26P (Biotin-LTF[R8]EYWAQP[S5]SAA-NH2; staple 4-11; SMILES CC(C)C[C@H](NC(=O)CCCC[C@@H]1SC[C@@H]2NC(=O)N[C@@H]21)C(=O)N[C@H](C(=O)N[C@@H](Cc1ccccc1)C(=O)N[C@]1(C)CCCCCCC=CCCC[C@@](C)(C(=O)N[C@@H](CO)C(=O)N[C@@H](C)C(=O)N[C@@H](C)C(N)=O)NC(=O)[C@@H]2CCCN2C(=O)[C@H](CCC(N)=O)NC(=O)[C@H](C)NC(=O)[C@H](Cc2c[nH]c3ccccc23)NC(=O)[C@H](Cc2ccc(O)cc2)NC(=O)[C@H](CCC(=O)O)NC1=O)[C@@H](C)O)	HDMX selectivity over HDM2
ATSP-7041 B26C (Biotin-LTF[R8]EYWAQC[S5]SAA-NH2; staple 4-11; SMILES CC(C)C[C@H](NC(=O)CCCC[C@@H]1SC[C@@H]2NC(=O)N[C@@H]21)C(=O)N[C@H](C(=O)N[C@@H](Cc1ccccc1)C(=O)N[C@]1(C)CCCCCCC=CCCC[C@@](C)(C(=O)N[C@@H](CO)C(=O)N[C@@H](C)C(=O)N[C@@H](C)C(N)=O)NC(=O)[C@H](CS)NC(=O)[C@H](CCC(N)=O)NC(=O)[C@H](C)NC(=O)[C@H](Cc2c[nH]c3ccccc23)NC(=O)[C@H](Cc2ccc(O)cc2)NC(=O)[C@H](CCC(=O)O)NC1=O)[C@@H](C)O)	HDMX selectivity over HDM2
ATSP-7041 B26G (Biotin-LTF[R8]EYWAQG[S5]SAA-NH2; staple 4-11; SMILES CC(C)C[C@H](NC(=O)CCCC[C@@H]1SC[C@@H]2NC(=O)N[C@@H]21)C(=O)N[C@H](C(=O)N[C@@H](Cc1ccccc1)C(=O)N[C@]1(C)CCCCCCC=CCCC[C@@](C)(C(=O)N[C@@H](CO)C(=O)N[C@@H](C)C(=O)N[C@@H](C)C(N)=O)NC(=O)CNC(=O)[C@H](CCC(N)=O)NC(=O)[C@H](C)NC(=O)[C@H](Cc2c[nH]c3ccccc23)NC(=O)[C@H](Cc2ccc(O)cc2)NC(=O)[C@H](CCC(=O)O)NC1=O)[C@@H](C)O)	HDMX selectivity over HDM2
ATSP-7041 B26T (Biotin-LTF[R8]EYWAQT[S5]SAA-NH2; staple 4-11; SMILES CC(C)C[C@H](NC(=O)CCCC[C@@H]1SC[C@@H]2NC(=O)N[C@@H]21)C(=O)N[C@H](C(=O)N[C@@H](Cc1ccccc1)C(=O)N[C@]1(C)CCCCCCC=CCCC[C@@](C)(C(=O)N[C@@H](CO)C(=O)N[C@@H](C)C(=O)N[C@@H](C)C(N)=O)NC(=O)[C@H]([C@@H](C)O)NC(=O)[C@H](CCC(N)=O)NC(=O)[C@H](C)NC(=O)[C@H](Cc2c[nH]c3ccccc23)NC(=O)[C@H](Cc2ccc(O)cc2)NC(=O)[C@H](CCC(=O)O)NC1=O)[C@@H](C)O)	HDMX selectivity over HDM2
ATSP-7041 B26S (Biotin-LTF[R8]EYWAQS[S5]SAA-NH2; staple 4-11; SMILES CC(C)C[C@H](NC(=O)CCCC[C@@H]1SC[C@@H]2NC(=O)N[C@@H]21)C(=O)N[C@H](C(=O)N[C@@H](Cc1ccccc1)C(=O)N[C@]1(C)CCCCCCC=CCCC[C@@](C)(C(=O)N[C@@H](CO)C(=O)N[C@@H](C)C(=O)N[C@@H](C)C(N)=O)NC(=O)[C@H](CO)NC(=O)[C@H](CCC(N)=O)NC(=O)[C@H](C)NC(=O)[C@H](Cc2c[nH]c3ccccc23)NC(=O)[C@H](Cc2ccc(O)cc2)NC(=O)[C@H](CCC(=O)O)NC1=O)[C@@H](C)O)	HDMX selectivity over HDM2
ATSP-7041 B26Y (Biotin-LTF[R8]EYWAQY[S5]SAA-NH2; staple 4-11; SMILES CC(C)C[C@H](NC(=O)CCCC[C@@H]1SC[C@@H]2NC(=O)N[C@@H]21)C(=O)N[C@H](C(=O)N[C@@H](Cc1ccccc1)C(=O)N[C@]1(C)CCCCCCC=CCCC[C@@](C)(C(=O)N[C@@H](CO)C(=O)N[C@@H](C)C(=O)N[C@@H](C)C(N)=O)NC(=O)[C@H](Cc2ccc(O)cc2)NC(=O)[C@H](CCC(N)=O)NC(=O)[C@H](C)NC(=O)[C@H](Cc2c[nH]c3ccccc23)NC(=O)[C@H](Cc2ccc(O)cc2)NC(=O)[C@H](CCC(=O)O)NC1=O)[C@@H](C)O)	HDMX selectivity over HDM2
LTF8EYWEQBXSAA (LTF[R8]EYWEQ[Cba][S5]SAA-NH2; staple 4-11; not fully specified (N-terminus); printed as LTF8EYWEQBXSAA) [ATSP-7041 A24E]	restored dual HDM2/HDMX binding selectivity
ATSP-7041 B26D (Biotin-LTF[R8]EYWAQD[S5]SAA-NH2; staple 4-11; SMILES CC(C)C[C@H](NC(=O)CCCC[C@@H]1SC[C@@H]2NC(=O)N[C@@H]21)C(=O)N[C@H](C(=O)N[C@@H](Cc1ccccc1)C(=O)N[C@]1(C)CCCCCCC=CCCC[C@@](C)(C(=O)N[C@@H](CO)C(=O)N[C@@H](C)C(=O)N[C@@H](C)C(N)=O)NC(=O)[C@H](CC(=O)O)NC(=O)[C@H](CCC(N)=O)NC(=O)[C@H](C)NC(=O)[C@H](Cc2c[nH]c3ccccc23)NC(=O)[C@H](Cc2ccc(O)cc2)NC(=O)[C@H](CCC(=O)O)NC1=O)[C@@H](C)O)	HDMX selectivity over HDM2
SAH-p53-4 N29R: Formula (I) stapled peptide: [Xaa]w LSQETF, [Xaa]x DLWKLL, [Xaa]y ER (LSQETF[R8]DLWKLL[S5]ER-NH2; staple 7-14; not fully specified (N-terminus))	HDMX selectivity over HDM2

More lines, now with the values ahead:

HDMX versus HDM2 binding selectivity	Substance
dual selectivity to HDMX and HDM2	SAH-p53-4 D21R: Formula (I) stapled peptide: [Xaa]w LSQETF, [Xaa]x RLWKLL, [Xaa]y EN (LSQETF[R8]RLWKLL[S5]EN-NH2; staple 7-14; not fully specified (N-terminus))
dual selectivity to HDMX and HDM2	SAH-p53-4 K24R: Formula (I) stapled peptide: [Xaa]w LSQETF, [Xaa]x DLWRLL, [Xaa]y EN (LSQETF[R8]DLWRLL[S5]EN-NH2; staple 7-14; not fully specified (N-terminus))
selectivity to HDM2	SAH-p53-4 S15E: Formula (I) stapled peptide: [Xaa]w LEQETF, [Xaa]x DLWKLL, [Xaa]y EN (LEQETF[R8]DLWKLL[S5]EN-NH2; staple 7-14; not fully specified)
dual-HDM2/HDMX targeting	LTF8EYWAQBXSAA [ATSP-7041, reference compound]
dual selectivity to HDMX and HDM2	SAH-p53-4 E28R: Formula (I) stapled peptide: [Xaa]w LSQETF, [Xaa]x DLWKLL, [Xaa]y RN (LSQETF[R8]DLWKLL[S5]RN-NH2; staple 7-14; not fully specified (N-terminus))
dual selectivity to HDMX and HDM2	SAH-p53-4 L25A: Formula (I) stapled peptide: [Xaa]w LSQETF, [Xaa]x DLWKAL, [Xaa]y EN (LSQETF[R8]DLWKAL[S5]EN-NH2; staple 7-14; also: biotinylated)
dual selectivity to HDMX and HDM2	SAH-p53-4 L25E: Formula (I) stapled peptide: [Xaa]w LSQETF, [Xaa]x DLWKEL, [Xaa]y EN (LSQETF[R8]DLWKEL[S5]EN-NH2; staple 7-14; not fully specified)
dual selectivity to HDMX and HDM2	SAH-p53-4 L22E: Formula (I) stapled peptide: [Xaa]w LSQETF, [Xaa]x DEWKLL, [Xaa]y EN (LSQETF[R8]DEWKLL[S5]EN-NH2; staple 7-14; also: biotinylated)
dual selectivity to HDMX and HDM2	SAH-p53-4 Q16R: Formula (I) stapled peptide: [Xaa]w LSRETF, [Xaa]x DLWKLL, [Xaa]y EN (LSRETF[R8]DLWKLL[S5]EN-NH2; staple 7-14; not fully specified)
selectivity to HDM2	SAH-p53-4 S15A: Formula (I) stapled peptide: [Xaa]w LAQETF, [Xaa]x DLWKLL, [Xaa]y EN (LAQETF[R8]DLWKLL[S5]EN-NH2; staple 7-14; not fully specified)
dual selectivity to HDMX and HDM2	SAH-p53-4 T18E: Formula (I) stapled peptide: [Xaa]w LSQEEF, [Xaa]x DLWKLL, [Xaa]y EN (LSQEEF[R8]DLWKLL[S5]EN-NH2; staple 7-14; not fully specified)

Same assay, conditions: biotinylated stapled peptide, 1:1 mixture of recombinant HDM2 and HDMX, listed as SEQ ID NO:29

HDMX versus HDM2 binding selectivity	Substance
selectivity to HDMX	SAH-p53-4 N29R: Formula (I) stapled peptide: [Xaa]w LSQETF, [Xaa]x DLWKLL, [Xaa]y ER (LSQETF[R8]DLWKLL[S5]ER-NH2; staple 7-14; not fully specified (N-terminus))

Same assay, conditions: biotinylated stapled peptide, 1:1 mixture of recombinant HDM2 and HDMX, listed as SEQ ID NO:61

Substance	HDMX versus HDM2 binding selectivity
ATSP-7041 B26G (Biotin-LTF[R8]EYWAQG[S5]SAA-NH2; staple 4-11; SMILES CC(C)C[C@H](NC(=O)CCCC[C@@H]1SC[C@@H]2NC(=O)N[C@@H]21)C(=O)N[C@H](C(=O)N[C@@H](Cc1ccccc1)C(=O)N[C@]1(C)CCCCCCC=CCCC[C@@](C)(C(=O)N[C@@H](CO)C(=O)N[C@@H](C)C(=O)N[C@@H](C)C(N)=O)NC(=O)CNC(=O)[C@H](CCC(N)=O)NC(=O)[C@H](C)NC(=O)[C@H](Cc2c[nH]c3ccccc23)NC(=O)[C@H](Cc2ccc(O)cc2)NC(=O)[C@H](CCC(=O)O)NC1=O)[C@@H](C)O)	selectivity to HDMX

Same assay, conditions: biotinylated stapled peptide, 1:1 mixture of recombinant HDM2 and HDMX, listed as SEQ ID NO:77

Substance	HDMX versus HDM2 binding selectivity
LTF8EYWEQBXSAA (LTF[R8]EYWEQ[Cba][S5]SAA-NH2; staple 4-11; not fully specified (N-terminus); printed as LTF8EYWEQBXSAA) [ATSP-7041 A24E]	dual-selectivity to HDMX and HDM2
